Where a SMILES comes first, the peptide text is derived from it. [ ]: non-standard residue; d: D form. The star is where a group is joined. DOTA = O=C(O)CN1CCN(CC(=O)O)CCN(CC(=O)*)CCN(CC(=O)O)CC1; 2Nal = N[C@@H](Cc1ccc2ccccc2c1)C(=O)O; PEG6 = NCCOCCOCCOCCOCCOCCOCCC(=O)O
Legend:
[1] = Congo Red spectroscopic (UV-Vis) assay for amyloid-like fibrils; format: physicochemical; conditions: 30 min at room temperature
Experimental: The high tendency of Gd-2Nal2 to self-aggregate in amyloid-like fibrillary nanostructures in solution was confirmed by Congo Red (CR) staining assay. CR is a well-known azoic dye, used as indicator of the occurrence of amyloid like fibrils. […] When incubated with fibrillary aggregates, its spectral profile changes and a shift of the CR band from 490 to 540 nm is expected. In our experiment, depicted in Fig. 3b, CR UV-Vis maximum undergoes a clear shift after incubation with Gd-2Nal2 at 2.5 mg/mL. Instead, any variation or a slight shift can be evidenced for CR incubated with 0.1 and 1.0 mg/mL, respectively.
Congo Red (CR) UV-Vis assay was carried out on aforementioned spectrophotometer as previously described. Briefly, 5, 50 and 125 μL of di-naphthylalanine stock solution (20 mg/mL) were added to a CR solution (12, 5 μM) prepared immediately before to use. The solutions containing peptide conjugate incubated with CR were left at room temperature for 30 min and then their UV-Vis spectra were recorded between 400 and 700 nm. The spectrum of CR alone at the same concentration was also recorded in the this spectral region.

[2] = Critical aggregation concentration (CAC) by ANS fluorescence titration; format: physicochemical; conditions: ANS 20 μM titrated with conjugate, emission at 470 nm, graphical break-point (Figure S3)
[3] = Doxorubicin loading and leakage by fluorescence spectroscopy; format: physicochemical
Text: In order to prepare a potential theranostic agent, we assayed to incorporate cytotoxic doxorubicin (DOX) model drug in the Gd-2Nal2 paramagnetic nanostructures. DOX is an established anticancer agent clinically effective for the treatment of many cancertypes (breast and ovarian cancers). The incorporation and release of DOX into nanostructures was estimated by fluorescence spectroscopy (Figures S7 and S8). The addition of increasing amounts of the peptide conjugate to the DOX solution causes a progressive decrease of the fluorescence intensity of DOX (Figure S7a). […] By plotting the fluorescence intensity in the maximum at 590 nm as function of the Gd-2Nal2 concentration (Figure S7b) we estimated that gDrug/gPeptide is 0.028 (∼60 μg of DOX for ∼2.0 mg of peptide). […]
A DOX solution (1 · 10^−4 M) was placed in the cuvette and titrated with small amount of Gd-2Nal2 peptide conjugate at 50 mg/mL. The fluorescence of each sample was monitored on Jasco Model FP-750 spectroflurophotometer as above described. […] At the end of the titration the DOX filled Gd-2Nal2 aggregates were 10-fold diluted and the DOX fluorescence was monitored up to 72 h. […]
Figure S7: A) Fluorescence spectra of 1·10^-4 M DOX (58 μg/mL) solution alone and after the addition of growing amounts of Gd-2Nal2 peptide conjugate (from 0.25 to 10.0 mg/mL). […]

[4] = water
[5] = water, temperature below 5 °C
[6] = Self-aggregation by intrinsic naphthyl fluorescence (intensity decrease, excimer peak); format: physicochemical; conditions: water, room temperature, excitation 280 nm
Experimental: Self-organization of the peptide conjugates at the atomic level was further characterized also in solution with fluorescence, UV-Vis, ^1HNMR, CD and FTIR spectroscopies. […] From ispection of Fig. 1b, the typical emission spectrum of the 2-naphthyl group with three maxima at 325, 340 and 355 nm, respectively, can be detected.
The determination of CAC (critical aggregate concentration) values was determined as previously described[6] by the titration of the fluorescent probe ANS (8-anilino-1-naphthalene sulfonic acid ammonium salt)[28], [29] with the peptide conjugates[30].

[7] = Water proton relaxation measurements / NMRD profiles; format: physicochemical; conditions: 298 K
Text: The paramagnetic relaxivity (r1p) of Gd (III) complexes is given by:1 r1p∝1/T1MH=Kf(τR) where K is a constant related to the strength of the dipolar interaction between the protons and the electronic magnetic moment, and τR is the correlation time associated with the reorientation of the Gd-H magnetic vector. This means that slowly moving high molecular weight systems are endowed with higher relaxivity than rapidly reorienting low molecular weight ones. In the case of self assembling Gd-containing systems, the extent of aggregation may be evaluated through the measure of the water proton longitudinal relaxation rate of its aqueous solution. In Fig. 8 are reported the NMRD (Nuclear Magnetic Resonance Dispersion) profiles of Gd-2Nal2 acquired at 21.5 MHz (0.5 T) and 298 K as a function of the complex concentration. […] At concentrations higher than 10–15 mg/mL the relaxivity assumes an almost stable value which corresponds to the system in the completely aggregated form. By analyzing the profile of the relaxivity data as a function of the applied field strength (NMRD - Nuclear Magnetic Relaxation Dispersion) it is possible to obtain an accurate determination of the reorientational correlation time (τR)[16], that is strictly related to the molecular size of the investigated system. NMRD profiles were acquired below (black circles) and above (white ones) the CAC values determined by ANS titration and ^1HNMR. […] Data were analyzed using the Solomon-Bloembergen-Morgan model, [18], considering one water molecule in the inner coordination sphere (q = 1) and fixing the exchange lifetime (τM) to a reliable value ([…]) on the basis of those previously reported for mono-amido DOTA derivatives[19]–[22]. The quantitative analysis of the NMRD profile of the aggregated form was not satisfactory when the simple inner- outer-sphere model was used, so the Lipari-Szabo approach was used for the description of the rotational dynamics. This model allows one to take into account the presence ofa certain degree of internal rotation superimposed on the overall tumbling motion, [24]. These two types ofmotion, a relatively fast local rotation of the coordination cage about the linker to the peptide scaffold superimposed on the global reorientation of the system, are characterized by different correlation times: τR ^l and τR ^g, respectively. The degree of correlation between global and local rotations is given by the parameter S^2, which takes values between 0 (completely independent motions) and 1 (entirely correlated motions).
Measure of R1 (longitudinal water proton relaxation rates) of Gd-2Nal2 were carried out on a Stelar Spinmaster spectrometer (Pavia, Italy) operating at 0.5 T which corresponds to 21.5 MHz Proton Larmor Frequency. R1 (1/T1) values were measured at 298 K by mean of the standard inversion-recovery technique. For the measure of the proton 1/T1 NMRD (Nuclear Magnetic Resonance Dispersion) profiles, a fast field-cycling Stelar relaxometer, operating over a continuum of magnetic field strengths from 0.00024 to 0.47 T (corresponding to 0.01–20 MHz proton Larmor frequencies) was used. The temperature was set at 298 K. The relaxometer is computer controlled and the absolute uncertainty is 1/T1 ± 1%. Additional data points were obtained on a Stelar Spinmaster spectrometer coupled to an electromagnet tunable at different Larmor Frequencies between 21.5 and 70 MHz. Experimental temperature control was obtained with an air-flow heater (Stelar VTC-91) endowed of a copper constantan thermocouple (uncertainty 0.1 °C). A previously reported relaxometric method[39] was used for the determination of the concentrations of the solutions used for the relaxometric characterization. The conventional Solomon-Bloembergen-Morgan theory was used for fitting of experimental data.

[8] = Transmission electron microscopy of self-assembled conjugates; format: physicochemical; conditions: 5.0 mg/mL solution dried on grid, phosphotungstic acid stain
Experimental: Self-assembled peptide conjugate at 5.0 mg/mL, as free base or as metal complex, was initially characterized using TEM. […] The presence of a diffraction pattern both in SAXS and in WAXS is fingerprint of a hierarchical organization of the molecules in fibers from the atomic to the nanoscale.
TEM images were acquired by LaMest (Pozzuoli, Italy) with a FEI TECNAI G12 Spirit-Twin microscope (LaB6 source) endowed of a bottom mounted FEI Eagle-4k CCD camera (Eindhoven, The Netherlands), working at 120 kV.

NC(=O)[C@H](Cc1ccc2ccccc2c1)NC(=O)[C@H](Cc1ccc2ccccc2c1)NC(=O)CCOCCOCCOCCOCCOCCOCCNC(=O)CN1CCN(CC(=O)O)CCN(CC(=O)O)CCN(CC(=O)O)CC1 [Gd-2Nal2, Gd-DOTA-L6-(2Nal)2] ({DOTA-PEG6}-[2Nal]-[2Nal]-NH2)
shift of Congo Red UV-Vis maximum (490 to 540 nm expected for fibrils) ([1]; conjugate at 1.0 mg/mL): slight shift | shift of Congo Red UV-Vis maximum (490 to 540 nm expected for fibrils) ([1]; conjugate at 2.5 mg/mL): clear shift | critical aggregation concentration (CAC) [2]: ~0.86 mg/mL | doxorubicin loading, gDrug/gPeptide ([3]; DOX 1·10^−4 M titrated with Gd-2Nal2 (50 mg/mL stock), fluorescence at 590 nm, excitation 480 nm): 0.028 | DOX leakage (drug released) from the peptide aggregate ([3]; DOX filled aggregates 10-fold diluted, fluorescence monitored, after 72 h): ~6% | solubility [4]: ≥ 50 mg/mL | concentration at which fast hydrogel formation occurs [5]: 20000 µg/mL | concentration at which self-aggregation begins (decrease of fluorescence intensity) [6]: ~75 µM | concentration of appearance of the excimer peak (380-430 nm) / formation of stable aggregates [6]: ~1000 µg/mL | concentration at which self-aggregation begins (decrease of fluorescence intensity) ([6]; 0.025-20.0 mg/mL range): ~100 µg/mL | aggregation state from NMRD profile and τR ([7]; 1 mg/mL): monomeric state | aggregation state from NMRD profile and τR ([7]; 25.0 mg/mL (high concentration)): formation of aggregates | concentration above which relaxivity assumes an almost stable value (completely aggregated form) ([7]; 21.5 MHz (0.5 T), water): 10000 to 15000 µg/mL | concentration at which self-aggregation starts (enhancement in relaxivity) ([7]; 21.5 MHz (0.5 T), water): ca. 1.0 mg/mL | r1p (longitudinal proton relaxivity) ([7]; complex at 1 mg/mL, aqueous solution): 7.3 mM⁻¹ s⁻¹ | supramolecular aggregation / morphology in TEM images [8]: long fibrillary nanostructures
